{"source": "patent US20100330106A1", "about": "(Regeneron, published 2010)", "binders": {"B1": {"name": "REGN421 (antibody, V domains shown)", "VH": "QVQLVESGGGVVQPGRSLRLSCAASGFTFSSYGMHWVRQAPGKGLEWVSFLWYDGTNKNYVESVKGRFTISRDNSKNMLYLEMNSLRAEDTAVYYCARDHDFRSGYEGWFDPWGQGTLVTVSS", "VL": "EIVLTQSPATLSLSPGERATLSCRASQSVSSYLAWYQQKPGQAPRLLIYDASNRATGIPARFSGSGSGTDFTLTISSLEPEDFAVYYCQHRSNWPPTFGGGTKVEIK"}}, "biological_target": "human DII4 (delta-like ligand 4) (human, UniProt Q9NR61 27-524, limits assumed)", "sequence (Q9NR61 27-524 limits assumed, stated change not applied)": "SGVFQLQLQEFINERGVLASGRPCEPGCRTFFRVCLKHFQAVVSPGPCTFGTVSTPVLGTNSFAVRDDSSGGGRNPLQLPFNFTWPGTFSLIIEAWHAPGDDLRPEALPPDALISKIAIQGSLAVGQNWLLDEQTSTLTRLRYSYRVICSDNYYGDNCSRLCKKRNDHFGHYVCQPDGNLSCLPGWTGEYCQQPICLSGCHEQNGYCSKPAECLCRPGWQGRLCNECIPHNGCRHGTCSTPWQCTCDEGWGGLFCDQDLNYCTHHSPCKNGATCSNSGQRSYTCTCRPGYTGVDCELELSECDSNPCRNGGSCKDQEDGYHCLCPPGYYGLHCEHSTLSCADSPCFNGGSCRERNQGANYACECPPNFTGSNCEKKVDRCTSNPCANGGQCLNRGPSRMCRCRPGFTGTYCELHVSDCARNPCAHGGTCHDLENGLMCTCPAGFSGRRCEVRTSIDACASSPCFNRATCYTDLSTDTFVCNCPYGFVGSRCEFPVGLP", "assay": "cell-based or functional assay", "data": [{"binder": "B1", "values": [{"measurement": "Hey-1 transcript, Post-treatment vs. Pre-treatment ratio (microarray, patient 1, dose 0.25 mg/kg, 24 hours after REGN421 administration)", "result": 0.52, "unit": "ratio"}, {"measurement": "Hey-1 transcript, Post-treatment vs. Pre-treatment ratio (microarray, patient 2, dose 0.25 mg/kg, 24 hours after REGN421 administration)", "result": 0.85, "unit": "ratio"}, {"measurement": "Hey-1 transcript, Post-treatment vs. Pre-treatment ratio (microarray, patient 3, dose 0.25 mg/kg, 24 hours after REGN421 administration)", "result": 0.77, "unit": "ratio"}, {"measurement": "Hey-1 transcript, Post-treatment vs. Pre-treatment ratio (microarray, patient 4, dose 0.25 mg/kg, 24 hours after REGN421 administration)", "result": 0.51, "unit": "ratio"}, {"measurement": "Hey-1 transcript, Post-treatment vs. Pre-treatment ratio (microarray, patient 5, dose 0.25 mg/kg, 24 hours after REGN421 administration)", "result": 0.61, "unit": "ratio"}, {"measurement": "Hey-1 transcript, Post-treatment vs. Pre-treatment ratio (microarray, patient 6, dose 0.25 mg/kg, 24 hours after REGN421 administration)", "result": 0.55, "unit": "ratio"}, {"measurement": "Hey-1 transcript, Post-treatment vs. Pre-treatment ratio (microarray, patient 7, dose 0.25 mg/kg, 24 hours after REGN421 administration)", "result": 0.75, "unit": "ratio"}, {"measurement": "Hey-1 transcript, Post-treatment vs. Pre-treatment ratio (microarray, patient 8, dose 0.5 mg/kg, 24 hours after REGN421 administration)", "result": 0.68, "unit": "ratio"}, {"measurement": "Hey-1 transcript, Post-treatment vs. Pre-treatment ratio (microarray, patient 9, dose 0.5 mg/kg, 24 hours after REGN421 administration)", "result": 0.82, "unit": "ratio"}]}]}
